Our source for the Kd values is article PMC4351158 (Structure (London, England : 1993), 2015).

Where no end group is shown, it is not given here. fluorescein = fluorescein, a fluorescent label on the peptide N-terminus

Common to all, as to assay: fluorescence polarisation
The target in assay [1] is T1, DegS Q191A (E. coli, UniProt P0AEE3 27-355, Q191A).
T1 sequence (looked up): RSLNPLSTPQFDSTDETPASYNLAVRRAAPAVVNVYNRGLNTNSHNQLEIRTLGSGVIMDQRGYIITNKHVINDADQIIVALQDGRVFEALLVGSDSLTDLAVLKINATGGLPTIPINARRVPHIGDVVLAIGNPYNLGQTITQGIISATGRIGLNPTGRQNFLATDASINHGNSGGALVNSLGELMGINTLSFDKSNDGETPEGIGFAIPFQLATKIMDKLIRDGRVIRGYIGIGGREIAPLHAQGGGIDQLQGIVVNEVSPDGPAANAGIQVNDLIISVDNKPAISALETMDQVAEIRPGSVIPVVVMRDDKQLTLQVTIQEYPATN

For assay [2], the target named is T2, DegS F220A (E. coli, UniProt P0AEE3 27-355, F220A).
T2 sequence (looked up): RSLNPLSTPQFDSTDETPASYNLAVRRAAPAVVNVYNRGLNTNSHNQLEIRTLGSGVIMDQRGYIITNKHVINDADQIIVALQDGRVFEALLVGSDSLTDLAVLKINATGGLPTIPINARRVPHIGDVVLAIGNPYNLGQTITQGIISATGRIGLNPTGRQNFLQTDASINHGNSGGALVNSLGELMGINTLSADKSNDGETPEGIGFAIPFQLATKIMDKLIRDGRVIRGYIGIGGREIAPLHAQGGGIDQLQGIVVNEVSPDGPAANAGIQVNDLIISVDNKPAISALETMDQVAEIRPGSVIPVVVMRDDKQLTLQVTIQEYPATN

Assay [3] has as its target T3, DegS P161A/H198P (E. coli, UniProt P0AEE3 27-355, P161A | H198P).
T3 sequence (looked up): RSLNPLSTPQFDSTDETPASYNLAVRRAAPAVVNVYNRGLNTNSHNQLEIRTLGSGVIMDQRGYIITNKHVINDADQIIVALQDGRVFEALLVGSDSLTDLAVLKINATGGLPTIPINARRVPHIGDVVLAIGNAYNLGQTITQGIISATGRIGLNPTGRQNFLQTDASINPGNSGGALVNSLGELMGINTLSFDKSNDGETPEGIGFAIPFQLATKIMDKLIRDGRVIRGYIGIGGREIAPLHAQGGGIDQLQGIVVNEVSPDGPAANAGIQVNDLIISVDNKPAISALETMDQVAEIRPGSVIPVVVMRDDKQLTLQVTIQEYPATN

Assay [4] concerns the target T4, DegS R178A/H198P (E. coli, UniProt P0AEE3 27-355, R178A | H198P).
T4 sequence (looked up): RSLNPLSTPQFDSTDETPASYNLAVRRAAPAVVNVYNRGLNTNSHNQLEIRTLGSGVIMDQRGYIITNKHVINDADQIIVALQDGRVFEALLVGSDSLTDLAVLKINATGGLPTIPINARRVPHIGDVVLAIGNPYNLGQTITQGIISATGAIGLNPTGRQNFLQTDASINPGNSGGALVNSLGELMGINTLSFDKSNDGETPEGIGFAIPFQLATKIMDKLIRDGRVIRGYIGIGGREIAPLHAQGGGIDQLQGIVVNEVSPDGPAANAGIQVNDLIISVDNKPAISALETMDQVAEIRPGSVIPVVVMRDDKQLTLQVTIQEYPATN

For assay [5], the target named is T5, DegS Y162A (E. coli, UniProt P0AEE3 27-355, Y162A).
T5 sequence (looked up): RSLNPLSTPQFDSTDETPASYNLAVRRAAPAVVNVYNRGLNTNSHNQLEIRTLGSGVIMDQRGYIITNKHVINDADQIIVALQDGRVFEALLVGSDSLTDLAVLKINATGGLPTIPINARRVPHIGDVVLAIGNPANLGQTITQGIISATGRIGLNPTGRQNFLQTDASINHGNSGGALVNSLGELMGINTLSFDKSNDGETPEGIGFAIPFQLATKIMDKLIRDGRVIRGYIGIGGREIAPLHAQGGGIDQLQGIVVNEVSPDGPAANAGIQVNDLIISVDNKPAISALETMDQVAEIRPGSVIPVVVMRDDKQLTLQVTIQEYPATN

In assay [6] the target is T6, DegS T167V (E. coli, UniProt P0AEE3 27-355, T167V).
T6 sequence (looked up): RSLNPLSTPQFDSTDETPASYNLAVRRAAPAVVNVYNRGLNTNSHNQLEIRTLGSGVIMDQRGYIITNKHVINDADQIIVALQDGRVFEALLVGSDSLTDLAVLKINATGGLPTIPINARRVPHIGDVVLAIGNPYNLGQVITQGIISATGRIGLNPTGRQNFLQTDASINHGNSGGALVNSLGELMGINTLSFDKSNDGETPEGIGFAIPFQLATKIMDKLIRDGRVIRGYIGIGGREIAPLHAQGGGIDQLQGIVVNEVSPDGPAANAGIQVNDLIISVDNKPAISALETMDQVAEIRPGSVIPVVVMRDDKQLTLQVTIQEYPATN

With fluorescein-DNRDGNVYYF [fluorescent OMP peptide fluorescein-DNRDGNVYYF], the Kd in assay [1] amounted to 3400 ± 1300 nM; in assay [2], 2100 ± 100 nM; in assay [3], 2500 ± 400 nM; in assay [4] it was 4000 ± 100 nM; in assay [5], 1900 ± 400 nM; in assay [6] it was 1800 ± 100 nM.
